Assay results taken from publication doi:10.1101/2024.12.16.628640.

Legend:
[1] = molecular target: D-glucose isomerase (D-xylose isomerase, XylA) of Xanthomonas campestris, His-tagged (Xanthomonas campestris); assay: SEC
[2] = molecular target: D-glucose isomerase (XylA) of Xanthomonas campestris with the exchange W147S, His-tagged (Xanthomonas campestris); assay: SEC

Substance	stoichiometry N [1]	stoichiometry N [2]
D-glucose isomerase (D-xylose isomerase, XylA) of Xanthomonas campestris, His-tagged (enzyme)	2	–
D-glucose isomerase (XylA) of Xanthomonas campestris with the exchange W147S, His-tagged (enzyme)	–	2
